In patent US7358088B2, “Peptides and compositions which modulate apoptosis” (ImmunoGen, Inc., priority 1995, dated 2008):
Ends that are not written are not given here.

B1: Bip1a ΔGD: Bip1a mutant with small deletion removing the conserved GD domain motif (protein)
chain: MSEVRPLSRDILMETLLYEQLLEPPTMEVLGMTDSEEDLDPMEDFDSLECMEGSDALRAPRLAQLSEVAMHSLGLAFIYDQTEDIRDVLRSFMDGFTTLKENIMRFWRSPNPGSWVSCEQVLLALLLLLALLLPLLSGGLHLLLK
B2: Bip1a: Bcl-2 interacting protein that induces apoptosis, lacks BH1 and BH2 (protein)
chain: MSEVRPLSRDILMETLLYEQLLEPPTMEVLGMTDSEEDLDPMEDFDSLECMEGSDALALRLACIGDEMDVSLRAPRLAQLSEVAMHSLGLAFIYDQTEDIRDVLRSFMDGFTTLKENIMRFWRSPNPGSWVSCEQVLLALLLLLALLLPLLSGGLHLLLK
B3: Bax ΔGD: Bax mutant with small deletion removing the conserved GD domain motif (protein)
chain: MDGSGEQPRGGGPTSSEQIMKTGALLLQGFIQDRAGRMGGEAPELALDPVPQDASTKKMELQRMIAAVDTDSPREVFFRVAADMFSDGNFNWGRVVALFYFASKLVLKALCTKVPELIRTIMGWTLDFLRERLLGWIQDQGGWDGLLSYFGTPTWQTVTIFVAGVLTASLTIWKKMG

Key:
HeLa cells = experiment: Microinjection assay, protection from anti-Fas and cycloheximide induced death; assay type: cell-based; details: for effect on cell viability: HeLa cells, microinjected peptide, absence of anti-Fas treatment
Method: HeLa cells (>100 cells/condition) were microinjected without (buffer) or with GST-Bcl-xL (0.3 mg/ml) in the absence or presence of GD domain peptides (0.5 mg/ml) and the recovery of live injected cells was determined after treatment with anti-Fas and cycloheximide for 18 hours. FITC-dextran was coinjected as a marker. A 15-amino acid Bak GD domain peptide (Bak-15; residues 73-87; […] [SEQ ID NO: 37]) and a mutant Bak GD domain peptide with an alanine substitution at leucine 78 (Bak-15L78A; […] [SEQ ID NO: 38]) were tested.
A cell-based microinjection assay is provided for the identification of agents that antagonize GD domain-mediated interactions and inhibit the cell death suppression activity of Bcl-xL and/or Bcl-2. One or preferably more than one cells are microinjected with a death suppressor protein, such as Bcl-xL or Bcl-2, which protects the cells from induction of cell death by an apoptosis-inducing agent, in the presence of a test compound, composition or agent. Compounds that bind to the death suppressor protein and prevent its protective function, resulting in the death of the microinjected cells, can thereby be identified.
The ability of GD domain peptide variants to inhibit the function of Bcl-xL correlated with their ability to bind to Bcl-xL (see FIG. 10). […] Similar results were obtained with MRC5 human diploid fibroblasts where protection from anti-Fas-induced death by microinjected Bcl-xL was inhibited by co-injection of the wild-type, but not mutant, Bak BH3 peptide.
Microinjection procedure: HeLa cells were plated in complete DMEM in 60 mm dishes at 2.4×10^5 cells per dish. […] Following injection, the cells were returned to the incubator and after 1 hour the number of injected cells was determined by fluorescence microscopy. Cells were then treated with anti-Fas mAb (7C11) and cycloheximide ([…]) and the recovery of injected cells remaining after 18 hours was determined.

[1] = molecular target: T1, Bcl-xL/Bak GD domain interaction (Homo sapiens, UniProt Q07817); experiment: High through-put screening assay 2: GST-Bcl-xL binding to biotinylated Bak GD peptide on neutravidin wells, ELISA; details: competing peptide added, ELISA signal
T1 construct: made in house; host or cells: E. coli
Method: An assay was developed to screen for compounds that block the interaction between the Bcl-2 homologs, Bcl-xL and Bak. A synthetic peptide corresponding to the Bak GD binding domain ([…] [SEQ ID NO: 35]) was biotinylated and bound to wells coated with neutravidin. […] Peptides encompassing the GD domain from various Bcl-2 family members were tested for their ability to block GD domain-mediated interactions in this assay. Peptides tested: Bcl-w [SEQ ID NO: 39] […] ([…]), Bak [SEQ ID NO: 36]([…]), Bak-15 [SEQ ID NO: 37] ([…]), Bak-15L78A [SEQ ID NO: 38] ([…]), control (no peptide).
In a modification of the high through-put screening assay 1 described herein, wells are coated with an avidin derivative, to which a biotinylated peptide/protein is bound. A GST-fusion protein that can interact with the biotinylated peptide/protein is added in the presence or absence of test compounds. The plates are incubated and then unbound GST-fusion protein is removed by washing. The amount of GST-fusion protein specifically bound to the tethered peptide/protein is determined by ELISA using an anti-GST antibody conjugated to horse radish peroxidase. Compounds which block the interaction between the biotinylated peptide/protein and the GST-fusion protein cause a decrease in the ELISA signal.
In a specific example, an assay was developed to screen for compounds that block the interaction between the Bcl-2 homologs, Bcl-xL and Bak. A biotinylated Bak GD domain peptide (amino acid residues 71-89; N-biotinylated […] [SEQ ID NO: 35]) was bound to wells coated with neutravidin. […] Using this assay, peptides from Bcl-2 family members were identified which block the Bcl-xL/Bak GD domain interaction (FIG. 10).

Rat-1 cells = experiment: Transient transfection cell killing assay (loss of β-galactosidase-positive blue cells); assay type: cell-based; details: for cell killing activity (reduction in number of blue β-gal expressing cells): Rat-1 cells co-transfected with β-galactosidase marker plasmid, 24 hours post transfection, relative to control vector
Method: The transient transfection assay procedure is similar to that previously described for detecting apoptosis induced by IL-1E-converting enzyme (Miura et al., Cell 75: 653-660 (1993); Kumar et al., Genes Dev. 8: 1613-1626 (1994); Wang et al., Cell 78: 739-750 (1994). One day prior to transfection, Rat-1 cells were plated in 24 well dishes at 3.5X10^4 cells/well. The following day, the cells were transfected with a marker plasmid encoding β-galactosidase (0.16 μg), in combination with an expression plasmid encoding Bak (0.42 μg), by the Lipofectamine procedure (Gibco/BRL). At 24 hours post transfection, cells were fixed and stained with X-Gal to detect J-galactosidase expression in cells that received plasmid DNA (Miura et al., supra). The number of blue cells was counted by microscopic examination and scored as either live (flat blue cells) or dead (round blue cells). The cell killing activity of Bak in this assay is manifested by a large reduction in the number of blue cells obtained relative to co-transfection of the β-gal plasmid with a control expression vector (i.e., with no bak cDNA insert).
The interpretation that loss of blue cells reflects the cell killing function of Bak is supported by a variety of observations: • 1. Rat-1 cells are rapidly killed by enforced Bak expression in stable transfection assays; • 2.
Enforced bak expression induces apoptosis in stable Rat-1 cell lines transfected with an inducible bak expression plasmid. In order to more rapidly assess the cell killing function of a large number of bak mutants, a transient transfection assay was employed. Rat-1 cells were transfected with a marker plasmid encoding β-galactosidase, in combination with an expression plasmid encoding Bak, or various control plasmids.

Bcl-xL = Bcl-xL (Homo sapiens, UniProt Q07817); experiment: In vitro protein binding assay, 35S labeled protein with GST-Bcl-xL on glutathione-agarose beads; set-up: made in house; host or cells: E. coli; details: tested both in vitro and in transfected COS cells
Method: A). Bak/Bcl-xL interactions measured in vitro. ^35S labeled in vitro translated Bak (lane 1) was mixed either with GST-Bcl-xL (lane 2) or GST (lane 3). The complexes were captured on glutathione-agarose beads, and bound ^35S labeled Bak protein was detected by electrophoresis on SDS polyacrylamide gels followed by autoradiography.
The beads were removed by centrifugation and the supernatants were incubated with GST or GST-Bcl-xL (final concentration […]) at 4° C. for 1 hour. The GST fusion proteins and any interacting proteins were recovered by incubation for 1 hour with an additional […] of GSH-agarose beads. The beads were washed twice with NP-40 lysis buffer followed by two washes with NP-40 lysis buffer without NP-40. Proteins were eluted from the beads by incubation in SDS-PAGE sample buffer at 100° C. for 5 min and loaded onto 4-20% SDS-polyacrylamide gels. Following electrophoresis, gels were fixed and incubated in a fluorography enhancing solution (Amplify; Amersham). The gels were dried and subjected to autoradiography at −70° C.

T1 sequence (Q07817 whole entry, the tested form may be a part): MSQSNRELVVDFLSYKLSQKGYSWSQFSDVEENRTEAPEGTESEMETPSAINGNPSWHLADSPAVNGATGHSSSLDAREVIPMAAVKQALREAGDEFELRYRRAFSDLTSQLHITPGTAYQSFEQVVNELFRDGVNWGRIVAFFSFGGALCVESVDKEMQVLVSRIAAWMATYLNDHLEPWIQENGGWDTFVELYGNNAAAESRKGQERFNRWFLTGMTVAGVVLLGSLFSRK
Bcl-xL, sequence (Q07817 whole entry): as the sequence (Q07817 whole entry, the tested form may be a part) above

Molecule	cell killing activity (reduction in number of blue β-gal expressing cells) (Rat-1 cells)	Bcl-xL binding capacity (Bcl-xL)	other results
QVGRQAAIIGDDINR [Bak-15L78A]			effect on cell viability (HeLa cells): neither peptide had an effect on cell viability
QVGRQLAIIGDDINR [Bak-15]			effect on cell viability (HeLa cells): neither peptide had an effect on cell viability
GST-Bcl-xL: bacterially-expressed GST fusion protein of the survival protein Bcl-xL			protection from death induced by Fas ligation (HeLa cells; HeLa cells microinjected with 0.3 mg/ml protein, anti-Fas and cycloheximide 18 hours): efficiently protected HeLa cells from death
AADPLHQAMRAAGDEFETRF [Bcl-w peptide]			inhibition of Bcl-xL/Bak GD domain binding [1]: did not block binding
Bcl-xL: long form of bcl-x product, suppresses apoptosis			restoration of number of blue cells on co-transfection with Bak (Rat-1 cells; Rat-1 cells, co-transfection of Bak with Bcl-xL): partially restored
GSDALALRLACIGDEMDVSL [Bip1a peptide, peptide encompassing the GD domain from Bip1a]			inhibition of Bcl-xL/Bak GD domain binding [1]: concentration-dependent inhibition of binding
QVG: truncated Bak protein derivative corresponding to amino acids 73-123 (QVGRQLAIIGDDINRRYDSEFQTMLQHLQPTAENAYEYFTKIATSLFESGI; not fully specified)	significantly reduced the number of blue cells	bound Bcl-xL	
Bax: Bcl-2 homolog and Bcl-2 interacting protein that induces apoptosis	eliminate blue cells	interact specifically with Bcl-xL	
STKKLSECLKRIGDELDSNH [Bax peptide, peptide encompassing the GD domain from Bax]			inhibition of Bcl-xL/Bak GD domain binding [1]: concentration-dependent inhibition of binding
PEM: truncated Bak protein derivative corresponding to amino acids 58-103 (PEMVTLPLQPSSTMGQVGRQLAIIGDDINRRYDSEFQTMLQHLQPT; not fully specified)		bound Bcl-xL	
B1	impaired in their ability to eliminate blue cells	no longer have the capacity to interact with Bcl-xL	
B2	eliminate blue cells	interact specifically with Bcl-xL	
B3	impaired in their ability to eliminate blue cells	no longer have the capacity to interact with Bcl-xL	
